# Results: the supplement of paper PMC10567573
# B1: TMEM106C (parent)
# chain: FTGRDSITCLTCQGTGYIPTEQVN
# Variants of: B1
# Assay: protein stability index of a GFP-peptide fusion (GPS, HEK-293T) (PSI 1-6); higher = more stable
# Conditions: c terminus: a fixed tail appended
# 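Note: lentivirally expressed fusions sorted by FACS into six bins by GFP to DsRed ratio, PSI derived from sequencing read proportions per bin multiplied by bin number.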
row,Variant,protein stability index
1,F1A,4.7
2,F1V,4.43
3,F1Y,1.99
4,F1H,4.52
5,F1R,4.35
6,F1P,4.63
7,F1L,4.16
8,F1K,4.29
9,F1S,4.33
10,F1E,4.7
11,F1Q,4.65
12,F1I,3.94
13,F1C,3.92
14,F1D,4.88
15,F1W,4.06
16,F1T,4.76
17,F1N,4.48
18,F1G,4.15
19,F1M,4.77
20,G3L,3.45
21,G3A,2.79
22,G3Y,2.45
23,G3N,2.12
24,G3K,3.49

row,Variant,protein stability index
1,G3S,1.46
2,G3D,1.85
3,G3V,2.99
4,G3H,1.7
5,G3R,2.84
6,G3M,2.81
7,G3C,1.89
8,G3T,2.04
9,G3I,2.33
10,G3E,2.7
11,G3P,2.76
12,G3W,1.48
13,G3Q,2.09
14,G3F,1.7
15,T8F,3.56
16,T8L,2
17,T8D,2.37
18,T8A,2.91
19,T8E,1.84
20,T8M,2.4
21,T8I,1.82
22,T8Q,2.37
23,T8P,1.9
24,T8R,1.41

row,Variant,protein stability index
1,T8K,1.79
2,T8N,1.92
3,T8Y,2.15
4,T8H,2.28
5,T8V,2.09
6,T8C,2.11
7,T8W,2.22
8,T8S,2.4
9,I7H,2.09
10,I7K,2.32
11,I7W,3.32
12,I7D,2.83
13,I7Y,2.68
14,I7V,1.77
15,I7T,2.78
16,I7N,2.15
17,I7S,2.39
18,I7F,1.6
19,I7A,2.22
20,I7R,2.15
21,I7M,1.76
22,I7E,2.89
23,I7Q,2.5
24,I7C,1.73

row,Variant,protein stability index
1,I7L,2.07
2,I7P,2.23
3,I7G,2.16
4,T2V,2.87
5,T2N,3.32
6,T2C,2.63
7,T2S,2.07
8,T2A,2.81
9,T2H,3.35
10,T2M,2.95
11,T2R,4.04
12,T2Q,2.91
13,T2P,2.82
14,T2Y,3.3
15,T2G,2.84
16,T2F,3.19
17,T2L,2.61
18,T2W,2.31
19,T2I,1.97
20,T2K,4.3
21,T2E,4.48
22,T2D,4.1
23,C9V,1.9
24,C9E,2.73

row,Variant,protein stability index
1,C9I,3.25
2,C9N,1.94
3,C9S,2.28
4,C9A,2
5,C9L,2.04
6,C9F,2.86
7,C9P,2.1
8,C9H,1.73
9,C9R,1.52
10,C9Q,1.68
11,C9Y,2.75
12,C9T,1.82
13,C9M,2.88
14,C9D,3.16
15,C9G,1.75
16,C9K,2.17
17,T11E,2.01
18,T11R,1.97
19,T11W,2.97
20,T11L,1.66
21,T11D,2.42
22,T11H,2.06
23,T11Y,2.07
24,T11A,2.32

row,Variant,protein stability index
1,T11C,1.86
2,T11I,1.52
3,T11V,2.66
4,T11M,1.77
5,T11Q,1.85
6,T11P,1.55
7,T11S,2.01
8,T11F,2.85
9,T11K,1.7
10,T11N,1.86
11,T11G,1.64
12,Q13V,2
13,Q13Y,2.38
14,Q13W,2.52
15,Q13E,1.95
16,Q13N,2.39
17,Q13F,2.17
18,Q13D,1.83
19,Q13C,1.53
20,Q13G,2.28
21,Q13P,1.94
22,Q13I,2.35
23,Q13L,2.13
24,Q13M,1.75

row,Variant,protein stability index
1,Q13A,2.23
2,Q13R,2.18
3,Q13H,2.09
4,Q13S,1.92
5,Q13K,1.96
6,Q13T,2.71
7,D5Q,2.17
8,D5P,2.12
9,D5Y,3.35
10,D5S,2.29
11,D5T,2.15
12,D5G,1.49
13,D5A,1.94
14,D5E,1.96
15,D5K,1.84
16,D5I,2.65
17,D5W,3.14
18,D5M,2.73
19,D5N,1.56
20,D5C,3.35
21,D5R,1.87
22,D5H,2.82
23,D5F,3
